Assay results: US20220106406A1 (UNIVERSITY OF KENTUCKY RESEARCH FOUNDATION, published 2022)

T1: 3×FLAG-PRL-1 (human, UniProt Q93096 1-170)
T1 construct: Expressed in HEK293T cells, tested in cell lysate; Order of tag and PRL follows the printed name only; also called 3xFLAG-PRL-1; not shown: 3×FLAG tag from p3×FLAG-CMV-14
T1 sequence (looked up): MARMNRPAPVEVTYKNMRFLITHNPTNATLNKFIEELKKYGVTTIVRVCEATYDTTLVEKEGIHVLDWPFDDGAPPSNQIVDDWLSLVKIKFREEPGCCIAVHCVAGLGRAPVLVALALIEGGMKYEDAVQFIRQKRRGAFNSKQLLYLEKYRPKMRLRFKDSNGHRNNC

T2: 3×FLAG-PRL-2 (human, UniProt Q12974 1-164)
T2 construct: Expressed in HEK293T cells, tested in cell lysate; Order of tag and PRL follows the printed name only; also called 3xFLAG-PRL-2; not shown: 3×FLAG tag from p3×FLAG-CMV-14
T2 sequence (looked up): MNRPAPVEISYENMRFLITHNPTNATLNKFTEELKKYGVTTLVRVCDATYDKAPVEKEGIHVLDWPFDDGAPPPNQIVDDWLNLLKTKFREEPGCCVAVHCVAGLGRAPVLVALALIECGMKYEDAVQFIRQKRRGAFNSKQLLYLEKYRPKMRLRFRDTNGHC

T3: GFP-PRL-2 (UniProt Q12974 1-164)
T3 construct: Expressed in HCT116 cells, fixed and permeabilized for immunofluorescence; also called CMV:GFP-PRL-2
T3 sequence (looked up): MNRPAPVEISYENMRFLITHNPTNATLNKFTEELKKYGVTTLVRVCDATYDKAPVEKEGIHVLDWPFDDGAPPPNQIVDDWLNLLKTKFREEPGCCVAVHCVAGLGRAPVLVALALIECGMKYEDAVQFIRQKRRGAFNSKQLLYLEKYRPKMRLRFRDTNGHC

T4: GFP-PRL-1 (UniProt Q93096 1-170)
T4 construct: Expressed in HCT116 cells, fixed and permeabilized for immunofluorescence; also called CMV:GFP-PRL-1
T4 sequence (looked up): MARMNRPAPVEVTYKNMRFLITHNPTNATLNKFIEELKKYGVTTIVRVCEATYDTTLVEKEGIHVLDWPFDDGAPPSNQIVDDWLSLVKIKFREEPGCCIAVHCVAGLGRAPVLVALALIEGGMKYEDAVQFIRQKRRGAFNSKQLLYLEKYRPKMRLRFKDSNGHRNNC


Key:
3×FLAG-PRL-1 = target: T1, 3×FLAG-PRL-1; assay: immunoprecipitation from HEK293T lysate with nanobody-coupled Dynabeads, anti-FLAG blot
Experimental: (§1) HEK293T cells (˜20 million) were lysed for 30 minutes with intermittent vortexing in Pierce IP lysis buffer (Thermo 87788) supplemented with 1% protease inhibitor cocktail (IP buffer) at 500 μl per 10 million cells and spun at 12,000 rpm for 10 minutes at 4° C. to pellet cell debris. Protein concentration was quantified using the Quick Start Bradford 1× Dye Reagent (Biorad, 5000205). 150 μL of nanobody-coupled beads were washed in 1 mL of PBS for 5 minutes, precipitated, then equilibrated in 500 μL of IP buffer for 5 minutes. 2.5 mg of total extracted protein was added to the balanced nanobody-beads complex for incubation with rocking at 4° C. overnight. After washing the beads-protein complex in cold PBS four times, 50 μL 2× Laemmli Sample Buffer (Biorad, 161-0737) with 2-Mercaptoethanol (Fisher Scientific, 034461-100) was added to the beads, the mixture was boiled at 95° C. for 10 minutes, and the supernatant was collected for western blot analysis.
(§2) PRL-3 substrates remain largely undefined, in part due to insufficient tools for cell-based studies. The current commercially available PRL-3 antibodies have not been extensively validated for specificity towards PRL-3 over other PRLs. To address this, the ability of the anti-PRL-3 nanobodies to identify PRL-3 protein in cell lysate was tested. Anti-PRL-3 nanobodies were coupled to superparamagnetic Dynabeads® M-270 Epoxy beads and used in immunoprecipitation of HEK293T cells expressing either 3×FLAG-PRL-1, -2, or -3. All nanobodies selectively pulled-down 3×FLAG-PRL-3 over PRL-1 and PRL-2, as assessed by anti-FLAG immunoblot (FIGS. 7A and 9A-I). Some nanobodies were more specific to PRL-3 than others; nanobodies 4, 16, 19, and 84 pulled down small amounts of 3×FLAG-PRL-1 and/or PRL-2 (FIG. 3A). Successful nanobody coupling to Dynabeads was confirmed by the presence of 6×-His-tag in all samples (FIG. 3B). […] In total, anti-PRL-3 nanobodies 10, 26, and 91 can be used to specifically immunoprecipitate PRL-3, with no binding to PRL-1 or PRL-2.

3×FLAG-PRL-2 = target: T2, 3×FLAG-PRL-2; assay: as above
Experimental: as §1, §2

GFP-PRL-2 = target: T3, GFP-PRL-2; assay: immunofluorescence on fixed, permeabilized transfected HCT116 cells
Experimental: (§3) HCT116 colorectal cancer cells were transfected with A—CMV:GFP, CMV:GFP-PRL-1, CMV:GFP-PRL-2, or CMV:GFP-PRL-3 for 24 hours prior to cell fixation and permeabilization. Immunofluorescence assays were completed with 1:1000 1 mg/mL NB91 followed by 1:400 Alexa Fluor® 594-AffiniPure Goat Anti-Alpaca IgG, VHH domain and show nanobodies detect PRL-3 but not PRL-1 or PRL-2.
(§4) Transfected cells were plated at 5,000 cells per well in 96-well black glass bottomed plates (Cellvis, P96-1.5H-N). All solution exchanges and imaging occurred in the 96-well plate. 24 hours post-transfection cells were fixed in 4% paraformaldehyde (VWR, AAJ61899-AK) for 15 minutes, rinsed in PBS, permeabilized for 10 minutes in 1% 100× Triton (Sigma, X100-100), and rinsed in PBS. Blocking solution of 2% BSA in PBS was applied for 1 hour to all wells. All nanobodies were diluted to 1 mg/ml in blocking solution, and further diluted 1:1000 and incubated with the cells for 1 hour at room temperature followed by five PBS washes. Detection was carried out using an anti-alpaca IgG VHH conjugated to Alexa Fluor-594 (Jackson ImmunoResearch, 128-585-232) diluted 1:400 in blocking solution, and counterstained with Hoechst, 1:1000 dilution (ThermoFisher, H3570). All wells were washed in PBS five times prior to imaging. Images were acquired with a Nikon MR confocal using the 40× water objective. […]

GFP-PRL-1 = target: T4, GFP-PRL-1; assay: as above
Experimental: as §3, §4

binding result (3×FLAG-PRL-1)	binding result (3×FLAG-PRL-2)	binding result (GFP-PRL-2)	binding result (GFP-PRL-1)	Binder
no binding	no binding	no binding (tested: 1:1000 of 1 mg/mL)	no binding (tested: 1:1000 of 1 mg/mL)	NB91 (VHH, Alpaca nanobody expressed from pMES4 in E. coli; also called nanobody 91; Nanobody 91) VHH: QVQLQESGGGLVQTGGSLRLSCAASQSTFNFDVMGWYRLAPGKQREFLTSITNGGNIYYADSVKGRFTIARDDSKTTMYLEMNSLKPEDTAVYTCYGQTHKPRVTTSWGQGTQVTVSS
no binding	no binding	–	–	NB10 (VHH, Alpaca nanobody, C-terminal 6xHis tag intact; also called nanobody 10) VHH: QVQLQESGGGLVQTGGSLRLSCAASQSTFNFNVMGWYRLAPGKQREFLPSLTNGGNIYYADSVKGRFTIARDDSKTTTYLEMNSLKPEDTAVYTCYGQTHKPRVTTSWGQGTQVTVSS
no binding	no binding	–	–	NB26 (VHH, Alpaca nanobody, C-terminal 6xHis tag intact; also called nanobody 26; Nanobody 26) VHH: QVQLQESGGGLVQPGGSLKLSCVVTGLHYYTEGWFRQAPGKEREGVSCISSSDGRTDYIDSVKGRFTISEDNDNKTVYLQMNTLKPDDTGVYYCVAERGPRGSTWWETYDYWGQGTHVTVSS
